Test results reported in paper PMC5577222.

Tests used:
[1] = target: microtubules polymerized from porcine brain tubulin (taxol-stabilized) (porcine) (UniProt P02550); assay: single-molecule TIRF microscopy; rhodamine-labelled taxol-stabilized microtubules held on the surface by anti-beta-tubulin; eGFP-DRG1 at 0.08, 0.4, 4, 40 nM in BRB80 assay buffer with 1 mM GTP, 25 °C; residence times from kymographs, not corrected for bleaching
[2] = target: microtubules polymerized from porcine brain tubulin (taxol-stabilized) (porcine) (UniProt P02550); assay: co-sedimentation; 1 µM recombinant DRG1 with different concentrations of taxol-stabilized microtubules; Coomassie quantified with ImageJ, binding curve fitted

Binder | residence time, diffusive population, 4 nM eGFP-DRG1 [1] [s] | residence time, diffusive population, 40 nM eGFP-DRG1 [1] [s] | residence time, immobile fraction, 0.08 nM eGFP-DRG1 [1] [s] | residence time, immobile fraction, 0.4 nM eGFP-DRG1 [1] [s] | residence time, immobile fraction, 4 nM eGFP-DRG1 [1] [s] | residence time, immobile fraction, 40 nM eGFP-DRG1 [1] [s] | Kd [2] [nM]
eGFP-DRG1 (Xenopus laevis DRG1 with N-terminal eGFP) (natural protein) MSGTLARIAEIEAEMARTQKNKATAYHLGLLKARLAKLRRELITPKGGGGGGPGEGFDVAKTGDARIGFVGFPSVGKSTLLSNLAGVYSEVAAYEFTTLTTVPGVVRYKGAKIQLLDLPGIIEGAKDGKGRGRQVIAVARTCNLILIVLDVLKPLGHKKIIENELEGFGIRLNKQPPNIGFKKKDKGGINLTATCAQSELDNDTVKSILAEYKIHNADITLRSDATADDLIDVVEGNRVYIPCIYVLNKIDQISIEELDIIYKVPHCVPISAHHRWNFDDLLEKIWDYLQLVRIYTKPKGQLPDYTSPVVLPCSHTAAEDFCTKIHKNLIKEFKYALVWGSSVKHNPQKVGKDHVLEDEDVIQIVKK | 2.2 | 2.6 | 12 | 12.4 | 11.1 | 5.4 | 
recombinant Xenopus laevis Developmentally regulated GTP binding protein 1 (DRG1), full length (natural protein) MSGTLARIAEIEAEMARTQKNKATAYHLGLLKARLAKLRRELITPKGGGGGGPGEGFDVAKTGDARIGFVGFPSVGKSTLLSNLAGVYSEVAAYEFTTLTTVPGVVRYKGAKIQLLDLPGIIEGAKDGKGRGRQVIAVARTCNLILIVLDVLKPLGHKKIIENELEGFGIRLNKQPPNIGFKKKDKGGINLTATCAQSELDNDTVKSILAEYKIHNADITLRSDATADDLIDVVEGNRVYIPCIYVLNKIDQISIEELDIIYKVPHCVPISAHHRWNFDDLLEKIWDYLQLVRIYTKPKGQLPDYTSPVVLPCSHTAAEDFCTKIHKNLIKEFKYALVWGSSVKHNPQKVGKDHVLEDEDVIQIVKK |  |  |  |  |  |  | 470
